Laboratory results as given in US20200352839.

System: Compound E7 (CTP-Cas1-FINA)

Substance: caspase-1
- HPLC analysis after treatment with caspase-1 (cleavage): the compound is cleaved into two moieties, that is, finasteride and the protein transduction domain
